From PMC9629490 (Acta Crystallographica. Section D, Structural Biology, 2022)

B1: human PRPF8 C-terminal fragment encompassing the RH and JM domains (PRPF8^RH-JM, residues 1760-2335) (domain or fragment)
chain: not shown
notes: human PRPF8, C-terminal fragment with the RH and JM domains, residues 1760-2335; no tag is stated for this chain (pIDK donor vector); also called PRPF8^RM-JM; prpf8^1760–2335
B2: human PRPF8 Jab1/MPN-like domain (PRPF8^JM, residues 2064-2335) (domain or fragment)
chain: not shown
notes: human PRPF8, Jab1/MPN-like domain, residues 2064-2335; The GST tag is TEV-cleavable; also called PRPF8 JM domain; source: pET-M11 plasmid, codon-optimized synthetic gene; purified, obtained as described previously (Mozaffari-Jovin et al., 2013)

Target: T1, human SNRNP200^395-2136 (truncated SNRNP200 lacking the first 394 residues) (human, UniProt O75643 395-2136)
T1 construct: In the co-purification with PRPF8^RH-JM the complex was captured on Ni-NTA and the tag was then cut with TEV protease; also called SNRNP200 helicase; source: modified pFL vector; purified, obtained as described previously (Santos et al., 2012); also co-produced with PRPF8^RH-JM in Sf9 cells (baculovirus)
T1 sequence (O75643 395-2136): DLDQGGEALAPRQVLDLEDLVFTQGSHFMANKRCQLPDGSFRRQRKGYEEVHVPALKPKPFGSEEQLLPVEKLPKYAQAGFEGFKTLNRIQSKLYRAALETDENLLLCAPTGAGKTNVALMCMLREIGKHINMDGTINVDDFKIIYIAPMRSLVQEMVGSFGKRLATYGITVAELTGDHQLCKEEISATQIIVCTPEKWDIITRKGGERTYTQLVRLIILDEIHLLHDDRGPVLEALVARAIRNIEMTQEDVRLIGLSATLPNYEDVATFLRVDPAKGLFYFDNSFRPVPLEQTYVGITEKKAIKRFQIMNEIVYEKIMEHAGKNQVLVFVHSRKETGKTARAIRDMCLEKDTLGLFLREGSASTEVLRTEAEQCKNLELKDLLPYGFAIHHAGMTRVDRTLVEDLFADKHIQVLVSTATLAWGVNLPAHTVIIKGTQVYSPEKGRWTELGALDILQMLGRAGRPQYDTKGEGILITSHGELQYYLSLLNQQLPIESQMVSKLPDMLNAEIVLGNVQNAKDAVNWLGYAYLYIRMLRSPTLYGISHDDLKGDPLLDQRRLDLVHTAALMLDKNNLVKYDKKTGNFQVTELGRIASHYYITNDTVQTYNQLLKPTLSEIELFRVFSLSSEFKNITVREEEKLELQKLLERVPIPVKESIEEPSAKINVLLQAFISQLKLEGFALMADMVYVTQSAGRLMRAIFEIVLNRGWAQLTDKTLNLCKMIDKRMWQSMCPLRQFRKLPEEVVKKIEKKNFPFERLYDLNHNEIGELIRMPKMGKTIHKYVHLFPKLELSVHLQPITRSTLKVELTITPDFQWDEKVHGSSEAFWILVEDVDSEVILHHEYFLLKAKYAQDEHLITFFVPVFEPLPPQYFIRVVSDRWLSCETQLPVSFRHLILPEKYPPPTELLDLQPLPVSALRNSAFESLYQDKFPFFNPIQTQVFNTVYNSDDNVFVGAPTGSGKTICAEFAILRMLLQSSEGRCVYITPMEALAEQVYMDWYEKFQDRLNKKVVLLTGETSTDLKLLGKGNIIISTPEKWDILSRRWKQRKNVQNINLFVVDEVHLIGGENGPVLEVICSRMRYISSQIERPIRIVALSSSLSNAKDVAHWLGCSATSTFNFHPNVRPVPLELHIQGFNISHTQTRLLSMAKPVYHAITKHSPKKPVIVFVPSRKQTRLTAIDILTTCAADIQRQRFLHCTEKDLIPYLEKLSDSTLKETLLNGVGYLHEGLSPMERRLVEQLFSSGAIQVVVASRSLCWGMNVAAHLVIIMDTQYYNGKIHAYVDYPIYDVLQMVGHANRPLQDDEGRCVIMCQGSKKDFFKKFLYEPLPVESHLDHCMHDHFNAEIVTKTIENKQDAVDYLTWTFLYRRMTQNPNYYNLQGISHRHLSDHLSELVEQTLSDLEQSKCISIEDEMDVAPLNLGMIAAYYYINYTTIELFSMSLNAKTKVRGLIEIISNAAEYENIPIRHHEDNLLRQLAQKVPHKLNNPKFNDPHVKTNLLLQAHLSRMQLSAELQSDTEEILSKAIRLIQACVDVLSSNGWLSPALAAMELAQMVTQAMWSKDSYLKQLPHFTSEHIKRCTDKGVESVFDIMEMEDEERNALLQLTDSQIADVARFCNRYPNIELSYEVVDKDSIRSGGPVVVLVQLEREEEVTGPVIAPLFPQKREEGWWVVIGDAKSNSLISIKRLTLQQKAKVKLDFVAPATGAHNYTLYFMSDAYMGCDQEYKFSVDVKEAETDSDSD
Assay: SEC; analytical SEC, Superdex 200 Increase PC3.2/30, 20 mM Tris-HCl pH 7.5, 250 mM NaCl, 0.5 mM DTT; proteins mixed in equimolar ratios, 30 min on ice; fractions analyzed by SDS-PAGE
Conditions: both partners purified

Binder	binding result
B1	binds
B2	binds
